The text below walks through data of PMC10907165, “Discovery and structural characterization of the D-box, a conserved TonB motif that couples an inner-membrane motor to outer-membrane transport” (The Journal of Biological Chemistry, 2024).

One may read the Kd as the free concentration of one partner at which half of the binding sites on the other are occupied at equilibrium, for simple one-to-one binding. The stoichiometry N is the number of molecules, sites or subunits per partner or assembly.

Ends that are not written are not given here.

B2: ExbD periplasmic domain (E. coli ExbD residues 59-141) (domain or fragment)
chain: GRPEKPVYLSVKADNSMFIGNDPVTDETMITALNALTEGKKDTTIFFRADKTVDYETLMKVMDTLHQAGYLKIGLVGEETAKAK
notes: single glycine residue left upstream of Arg-59 after proteolytic removal of the SUMO tag; ExbD, E. coli, periplasmic domain, residues 59-141 (begins at Arg-59); codon-optimised synthetic gene in pETHSUL; the methods and legends say 59-141; Two copies of this domain hold one D-box peptide in the crystals and by ITC; also called ExbD_(59-141); ExbD C-terminal periplasmic domain; source: E. coli …

For series [1], the target named is B2. Kind of series: ITC; D-box peptide (1 mM) injected into 100 uM ExbD protein at 288 K; 10 mM MES pH 5.3, 60 mM NaCl; two-state binding model. The conditions noted are these: both partners purified. In general terms: ITC needs no label: the signal is the heat of the interaction.
Series [2] concerns the molecule itself. Kind of series: crystal structure; ExbD periplasmic domain mixed with the D-box peptide; crystals from ammonium sulfate; orthorhombic and tetragonal forms, about 1.4 A.
The target of series [3] is B2. Description: fluorescence polarisation; fluorescence anisotropy; 100 nM AF488-labeled peptide, ExbD protein varied; 40 mM Tris pH 8.0, 150 mM NaCl; room temperature. The following applies: both partners purified. On the technique in general: In fluorescence polarisation assays a small probe gives low polarisation when free and higher when bound to something large.

B1: D-box peptide (residues 43 to 54 of E. coli TonB) (peptide)
peptide: QPISVTMVTPAD
notes: TonB, E. coli, residues 43-54, holds the D-box motif; The description of the crystal structure numbers the peptide Gln-55 to Thr-63, that is 12 higher than the TonB numbers; also called TonB D-box peptide; source: synthetic peptide (VWR Scientific)
Regarding B1, in series [1], binding was put at a Kd of 19 ± 1 µM and the “stoichiometry N” value was found to be 0.5 D-box peptide per ExbD.

For the molecule B2, in series [2], the binding result is listed as “binds”.

B3: AF488-labeled D-box peptide (QPISVTMVTPADC) (peptide)
peptide: QPISVTMVTPADC(AF488 maleimide)
notes: TonB, E. coli, residues 43-54 (D-box peptide); cysteine added at the C-terminus for labelling with the maleimide dye; not a TonB residue; also called fluorescently labeled D-box peptide; fluorophore-labeled D-box peptide; source: synthetic peptide (Biomatik Corporation), labelled with AF488-maleimide, purified on a C18 column
Turning to B3, the dissociation constant (Kd) in series [3] stood at 45 ± 9 µM.
